# Test: soluble on expression in E. coli; label from the status in PepcDB or PDB records
row,Sequence,soluble on expression in E. coli
1,MSLSFFFQSATVSDGELTGADLKDCISNNSLSSNASLPSVQSCRRLRERRVASWAVSFERLLQDPVGVRYFSDFLRKEFSEENILFWQACECFSHVPAHDKKELSYRAREIFSKFLCSKATTPVNIDSQAQLADDILNAPHPDMFKEQQLQIFNLMKFDSYTRFLKSQLYQECVLAEVEGRTLPDSQQVPSSPASKHSISSDHSNVSTPKKLSGKSKSGRSLNEDVGEEDSEKKRRGAFFSWSRSRSTGRSQKKKDHGDHAHDAPHANGGLCRRESQGSVSSAGSLDLSEACRTSALEKDKAAKHCCVHLPDGTSCVVAVKSGFSIKEILSGLCERHGINGAAVDLFLVGGDKPLVLHQDSSILATRDLRLEKRTLFRLDLVPINRSVGLKAKPTKPVTEVLRPVVAKYGLDLGSLLVRLSGEKEPLDLGAPISSLDGQRVILEERDPSRGKVSTDKQKGAPVKQNSAVNSSPRNHLAMGEERTLGKSNSIKIRGENGKSARDPRLSKREESIAKIGKKEYQKINLDEAEEFFELISKAQSNRADDQRGLLRKEDLVLPEFLRLPAGSSELALSSPPPVKGYSKRAVTGHGQEGAAQTEESYSDSPATSPASAQSPCSAYSPGSAHSPGSAHSTPGPPGTTQPGEKPTKPSCVSMVQEGTTQAWRRLSPGMEAGGIQTVEDEQVADLTLMGEGDISSPNSTLLPPPPTPQDTPGPPRPGTSRF,soluble
2,MSLSFNADEVRFLIDNLPDIDAATGDLALTKKTMISDVAALRARFGEHGRAVAELAGARRSVAGKLPVDWLMCHDSAQQATPMQVSGVRARRLVTALGEGTTAVDVTCSIGTEGHAVGQVGMGYIGSDLDQARLLMARYNLGGGVDKHPPHLLRADALAPAVTGADVIIADPARRAGGRRITDPAQLLPPLPDLLTAWEGHAMAVKCAPGLDFSGWTGLVSLVSVDGGVKEACLYTPDLADGETREAVILRGDRMDRITDALDDAPGEQLAREPGEFIIDPDGAVVRAGLVRHYAVREGLWMLDERIAYLTGDRIPAGTSGFRFIEQVPLKKLKGALTAHGAGSVEILVRGVDVDPDQLRKKLGLKGDRAMSVVITRIGSAGVALVCGAREWNGEGHHHHHH,soluble
3,MSLSFSTLMDKRERGSFDSQFLIAMPGLDDGNFARSVIYICAHSDAGAMGFIINRPQQITFTDILLHLKLVDSNDAIMLPNRTREFPIQCGGPVESGRGFVLHSDDYLSESSIPVSDDISLTATLDIVRAISNGRGPQKATMMLGYAGWGPGQLENEIANNGWLNCPAAEELIFDRGLDNKYERALALMGVDARMLSTDAGHAEGHHHHHH,not soluble
4,MSLSGAVFKTFLTSEHASWNRFNRRLHIPNEDIVDEIQLKARMQQRHHRVYPEIGDSTIVSFRGKDYAVHFIKDGPKDDYVYKVQRITPENGCFSTLFSVFSGGVTKALERKLNERHITPLSSTWFPRTPLEGILAERGLSSLLRRVQSTERLDNRAIATRASSYSVL,not soluble
5,MSLSGETLYQQLVNEWMELIRNGTVRPGERLPSVRKACAMHKVSPSTILQTYRMLEDRGLIEARPQSGFYVKSAASLPLPRMRRQSAAHHTGEVVDQIEAVMGVQSQADFIDLALASPRGSDFYPTTRFKHIMGRLLRQHPELTTDYPFPPGSERLRRQIAQRAVNWGCVLAADELVISNGCTEALQLALRAVCKPGDTVGVESPTYFALLPMLKDLGLAVIEIPTHPTSGLALDALELLLSEKRLNAVVAMPTVHNPLGSTMPPEAKRRLAQLVNDYQVPLIEDVPHAELFYGASTPDAVKAYDRDGWVLLCSSYSKTLAPGFRIGWIAPGRFLSEVRRLKFSSSLGQPALLEETLAEYLESGGYDHHLRLLRRHFISQMEKLRGAVAQHFPDGTRATLPSGGCLLWVELPSHADTMQLFRAALAERITVVPGAMYSAKGRYRNCLRLSCCYPWNEAYQRALIRVGELAGELAEGHEGHHHHHH,soluble
6,MSLSIALIAPYESLATLCRSICQELDLDVSVHTGSMEDGVRIARNLMAEGVDFFISRGLTAQLIREQCPLPVAELEVSAFDIYLCLEPLLRSGKSIGVVGHSDILRKAKGASAALGFTIDFYATAHPGGMGHIMEAARRQGIAAIAGDAVAARTAERYGMEGVLVQNGADSVTNTLQYAVATYSYLTRQATMAGEGHHHHHH,not soluble
7,MSLSIKLIAVDMDGTFLSDQKTYNRERFMAQYQQMKAQGIRFVVASGNQYYQLISFFPEIANEIAFVAENGGWVVSEGKDVFNGELSKDAFATVVEHLLTRPEVEIIACGKNSAYTLKKYDDAMKTVAEMYYHRLEYVDNFDNLEDIFFKFGLNLSDELIPQVQKALHEAIGDIMVPVHTGNGSIDLIIPGVHKANGLRQLQKLWGIDDSEVVVFGDGGNDIEMLRQAGFSFAMENAGSAVVAAAKYRAGSNNREGVLDVIDKVLKHEAPFKEGHHHHHH,soluble
8,MSLSIWGLVNEEDAEIDEDDLSKQEDGGEQPLRKVRTLAQSKPSDKEVILKTDGTFGTLSGKDDSIVEEKAYEPDLSDADFEGIEASPKLDVSKDWVEQLILAGSSLRSVFATSKEFDGPCQNEIDLLFSECNDEIDNAKLIMKERRFTASYTFAKFSTGSMLLTKDIVGKSGVSIKRLPTELQRKFLFDDVYLDKEIEKVTIEARKSNPYPQISESSLLFKDALDYMEKTSSDYNLWKLSSILFDPVSYPYKTDNDQVKMALLKKERHCRLTSWIVSQIGPEIEEKIRNSSNEIEQIFLYLLLNDVVRASKLAIESKNGHLSVLISYLGSNDPRIRDLAELQLQKWSTGGCSIDKNISKIYKLLSGSPFEGLFSLKELESEFSWLCLLNLTLCYGQIDEYSLESLVQSHLDKFSLPYDDPIGVIFQLYAANENTEKLYKEVRQRTNALDVQFCWYLIQTLRFNGTRVFSKETSDEATFAFAAQLEFAQLHGHSLFVSCFLNDDKAAEDTIKRLVMREITLLRASTNDHILNRLKIPSQLIFNAQALKDRYEGNYLEGHHHHHH,not soluble
9,MSLSKNRNIIEGRILSFDKSPFSKDFDLSSLKIDKKRIFIIDGIIESIEPVNFINPEFQDIEIIDYGDHLISAGFVDAHVHYPQTAIVASWGKRLIDWLNTYTFPEEMRFSNLNYASEIAARYIDFSLSNGTTTMASYCTIHPESVDAFFKSAAVKNMCVVGGKTCMDRNAPGDLCDSAKSAYDDSKALLQKWHHKGRAHYAITPRFSPTSTPDQLLALGSLWSEFPGCLMQTHLSEQVDEIDWVRKLFPNARDYLDTYETFGLLGERGVYGHAIHLEAREIDRLSEVGASLIHCPTSNTFIGSGLFNMEDLTSRSLKVGLASDIGGGSSFSMLRTMAGAYEVAQLRGLALHPSQLMWLATQGSAKALHLDNQIGNIAPGMAADLVVLDLSSTPTISQRSARANDVWEELFPTIMMGDDRAIAATYVAGKKIEGHHHHHH,soluble
10,MSLSKSLQKPTILNVETVARSRLFTVESVDLEFSNGVRRVYERMRPTNREAVMIVPIVDDHLILIREYAVGTESYELGFSKGLIDPGESVYEAANRELKEEVGFGANDLTFLKKLSMAPSYFSSKMNIVVAQDLYPESLEGDEPEPLPQVRWPLAHMMDLLEDPDFNEARNVSALFLVREWLKGQGRVEGGSHHHHHH,soluble
11,MSLSKSMARARNRCLPMNFRAEDLASGILRERVKVGASLADVDPMNIDKSVRFDSIGGLSHHIHALKEMVVFPLLYPEIFEKFKIQPPRGCLFYGPPGTGKTLVARALANECSQGDKKVAFFMRKGADCLSKWVGESERQLRLLFDQAYLMRPSIIFFDEIDGLAPVRSSRQDQIHSSIVSTLLALMDGLDNRGEIVVIGATNRLDSIDPALRRPGRFDREFLFNLPDQKARKHILQIHTRDWNPKLSDAFLGELAEKCVGYCGADIKALCTEAALIALRRRYPQIYASSHKLQLDVSSIVLSAQDFYHAMQNIVPASQRAVMSSGHALSPIIRPLLERSFNNILAVLQKVFPHAEISQSDKKEDIETLILEDSEDENALSIFETNCHSGSPKKQSSSAAIHKPYLHFTMSPYHQPTSYRPRLLLSGERGSGQTSHLAPALLHTLERFSVHRLDLPALYSVSAKTPEESCAQIFREARRTVPSIVYMPHIGDWWEAVSETVRATFLTLLQDIPSFSPIFLLSTSETMYSELPEEVKCIFRIQYEEVLYIQRPIEEDRRKFFQELILNQASMAPPRRKHAALCAMEVLPLALPSPPREGHHHHHH,not soluble
12,MSLSLTPLSEKLRPNNLDTFIGQNHLLERLQYIISAPRLPSMLFFGPPGCGKSTLALLLAYKKSTNILRISAPETGIQQLRQKLTDIDILILDEIHRFSKAQQDFFLPLLESGKLTMLATTTENPSFSVTKQLLSRLNVLQLRQLGYNELKELVKKGTLFLNILLPDDVINFLATTAHGDARTLFNLIEYISILPEEKRVLEYIKINLPEILERHDKDGDSHYEYASALIKSIRGSNPDAALYYLACLLEGGEDPRFICRRLIISASEDIGLADPQALSLAVSCQQAVEFVGMPEGFIPLSETVVYLALARKSNSTYAAYSNAAREVRLHGAQPVPLHLRNPSTQLQKQWGYGREYKYPHNYPNAWVEQEYFPSTISNRSFYYPKEQGEEPKLNMWHNHIKKKYSEGHHHHHH,not soluble
13,MSLSLWQQCLARLQDELPATEFSMWIRPLQAELSDNTLALYAPNRFVLDWVRDKYLNNINGLLNTFCGADAPQLRFEVGTKPVTQTLKTPVHNVVAPAQTTTAQPQRVAPAARSGWDNVPAPAEPTYRSNVNVKHTFDNFVEGKSNQLARAAARQVADNPGGAYNPLFLYGGTGLGKTHLLHAVGNGIMARKPNAKVVYMHSERFVQDMVKALQNNAIEEFKRYYRSVDALLIDDIQFFANKERSQEEFFHTFNALLEGNQQIILTSDRYPKEINGVEDRLKSRFGWGLTVAIEPPELETRVAILMKKADENDIRLPGEVAFFIAKRLRSNVRELEGALNRVIANANFTGRAITIDFVREALRDLLALQEKLVTIDNIQKTVAEYYKIKIADLLSKRRSRSVARPRQMAMALAKELTNHSLPEIGDAFGGRDHTTVLHACRKIEQLREESHDIKEDFSNLIRTLSSLEHHHHHH,not soluble
14,MSLSPALSAPKPLRFPANPAPTALKQFALTLQSESYRYRTPMKFGGRVVEEVTVLTAQCTATNQAGQVADGDQIGIGSMTMGVAWAWPDASVADGTKLEVVLELASRMAAQVNEASGTLTGHPMEICLQLASQREDLVAAVAAGHDLTAPIPELAILLAASPIEAALFDAHGKAAGQSSYSLLSAEHLPPDLGEMTGDDRYAGLRLDQFISSSPVATLPLYHLVGALDPLTQDDLAEPVGDGLPETLGEWITRNELTHLKIKLNGDDADWDFRRVRDINTVANETTDRGSSTGKPWWFSLDFNERCEDEAYVLGLLDRLESECPEAFERIQYIEQPTHRDLKRPGAVTMHQAAARIPVVIDESLTGLESLHLAVSQGYSGIALKACKGHAEALLLGAIAVHENLFLCVQDLTCVGASLLHSASLSAHIPGVAAVESNGRQYCPEGNAEWMACFGPMFEVRGGSVPTSCLDGPGLGYEGHHHHHH,soluble
15,MSLSPEHKRTALVTGANSGLGKAIVTALAADGLRVGLVARDRGRGEAALADVRAATGNQDLHLFVADLADQESIRALAQDVRARFDRLHLLINNAGTAFPERRLSPQGIERAFAINHLGPFLLTNLLLDLIKASAPARIVNVGTRIDAAIDFDDLNWDKRPYGMMKGYAQSKLGNLHFTFELARRLEGSGVTVNCVFPGVFKSNLGGTDGAQGLFWKLLAKLGGWAIPKPESAAQRVLYLANAPELESVSGQYYANRKTIPAPAQALDAEANRRLWEISERMTGLTQSQTVGDQAATEGHHHHHH,soluble
16,MSLSQLEPRQQAFRNAMAHLSAAVNVITSNGPAGRCGITATAVCSVTDSPPTLMLCINRNSEMNTVFKANGRLCVNVLSGEHEEVARHFAGMTEVPMERRFALHDWREGLAGLPVLHGALANLQGRIAEVQEIGTHSVLLLELEDIQVLEQGDGLVYFSRSFHRLQCPEGGSHHHHHH,soluble

# From the DeepSol protein solubility set
